Laboratory results reported in PMC9478954, “Density Control over MBD2 Receptor-Coated Surfaces Provides Superselective Binding of Hypermethylated DNA”.
Substitutions are numbered along the chain they refer to.

B1: Mal5C*pG (dsDNA)
DNA 1: CAGGCAGATGCGCAGCACCAAGCAGAGAGGCCCGGTGCAGGATCCCAGGCCCGAACCAGGCCCGGCTCAGTGGAGCCGGAAGGGGCAGGC
DNA 2: GCCTGCCCCTTCCGGCTCCACTGAGCCGGGCCTGGTTCGGGCCTGGGATCCTGCACCGGGCCTCTCTGCTTGGTGCTGCGCATCTGCCTG
modifications: 5-methyl-C at all CpGs, both strands (M.SssI); top strand C11, C33, C52, C63, C77
B2: Mal4C*pG (dsDNA)
DNA 1: B1 DNA 1 with C33G, G53C, A54G, C63A, A74C, C77T
DNA 2: B1 DNA 2 with G14A, T17G, G28T, T37C, C38G, G58C
modifications: 5-methyl-C at all CpGs, both strands (M.SssI); top strand C11, C32, C53, C74

Assays:
[1] = target: T1, His10-MBD2 (UniProt Q9UBB5 151-411); assay: QCM; 500 nM DNA; threshold MBD2 density ~88 ng/cm2; up to 61% of bound DNA irreversible; BB: 50 mM Tris, 350 mM NaCl, 0.1% Triton X-100 (pH and temperature of BB not stated); 500 nM DNA, 30 min, QCM 5th overtone; His10MBD2 loaded at 1 uM in IB (50 mM Tris pH 7.2, 300 mM NaCl, 0.1% beta-mercaptoethanol); conditions: protein: recombinant; tags: N-terminal His10; blunt
T1 sequence (Q9UBB5 151-411): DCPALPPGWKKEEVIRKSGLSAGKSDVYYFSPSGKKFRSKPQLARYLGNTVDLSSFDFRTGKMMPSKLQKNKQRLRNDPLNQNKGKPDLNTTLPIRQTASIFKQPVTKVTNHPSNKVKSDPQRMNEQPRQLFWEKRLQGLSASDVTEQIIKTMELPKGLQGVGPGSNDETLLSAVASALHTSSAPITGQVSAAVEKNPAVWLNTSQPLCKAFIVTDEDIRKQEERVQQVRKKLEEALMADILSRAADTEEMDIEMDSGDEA

[2] = target: T1, His10-MBD2; assay: QCM; 500 nM DNA; same trend as Mal5C*pG and Mal3C*pG; plateau between them; BB: 50 mM Tris, 350 mM NaCl, 0.1% Triton X-100 (pH and temperature of BB not stated); 500 nM DNA, 30 min, QCM 5th overtone; His10MBD2 loaded at 1 uM in IB (50 mM Tris pH 7.2, 300 mM NaCl, 0.1% beta-mercaptoethanol); conditions: protein: recombinant; tags: N-terminal His10; blunt

| Binder | binding result [1] | binding result [2] |
| --- | --- | --- |
| B1 | binds | – |
| B2 | – | binds |
